Experimental data reported in the DeepSol protein solubility set.

Assay: soluble on expression in E. coli; label from the status in PepcDB or PDB records

Sequence	soluble on expression in E. coli
MSLTEKCVIKIGGSVLKDGSSLPRVMDIISHFRSPILVVSAFGGITDALYRFYEYDESRMDKLRDLLLMHLGILWKYNIEAHPEISIQDSSILDQDAYVSYGEKMSAFTLARFLTGNGIPAAPIYTDEAGLIVEEISKERTVDLEGSRAFFENIARVETSGKVPVVTGFFGIDRYGKTRILGRNSSDYSAVAVAAILGIREVILIKDVPGIYMNLEDRTSIVNRIDYETALRIVDRGSKVVHRAALRLAMKMGMNLLITSPENLESGTVIGDLFEGHHHHHH	soluble
MSLTEKFRPTLKDVARQAGVSIATASRALADNPAVAASTRERIQQLASDLGYRANAQARALRSSRSNTIGVIVPSLINHYFAAMVTEIQSTASKAGLATIITNSNEDATTMSGSLEFLTSHGVDGIICVPNEECANQLEDLQKQGMPVVLVDRELPGDSTIPTATSNPQPGIAAAVELLAHNNALPIGYLSGPMDTSTGRERLEDFKAACANSKIGEQLVFLGGYEQSVGFEGATKLLDQGAKTLFAGDSMMTIGVIEACHKAGLVIGKDVSVIGFDTHPLFALQPHPLTVIDQNVEQLAQRAVSILTELIAGTVPSVTKTTIPTALIHRESIINSTLRKEGHHHHHH	soluble
MSLTGQLHPAVRVADLLQHINQMKTAEGYGFKQEYESFFEGWDATKKKDKVKGSRQEPMPAYDRHRVKLHPMLGDPNADYINANYIDGYHRSNHFIATQGPKPEMVYDFWRMVWQEHCSSIVMITKLVEVGRVKCSRYWPEDSDTYGDIKIMLVKTETLAEYVVRTFALERRGYSARHEVRQFHFTAWPEHGVPYHATGLLAFIRRVKASTPPDAGPIVIHCSAGTGRTGCYIVLDVMLDMAECEGVVDIYNCVKTLCSRRVNMIQTEEQYIFIHDAILEACLCGETTIPVSEFKATYKEMIRIDPQSNSSQLREEFQTLNSVTPPLDVEECSIALLPRNRDKNRSMDVLPPDRCLPFLISTDGDSNNYINAALTDSYTRSAAFIVTLHPLQSTTPDFWRLVYDYGCTSIVMLNQLNQSNSAWPCLQYWPEPGRQQYGLMEVEFMSGTADEDLVARVFRVQNISRLQEGHLLVRHFQFLRWSAYRDTPDSKKAFLHLLAEVDKWQAESGDGRTIVHCLNGGGRSGTFCACATVLEMIRCHNLVDVFFAAKTLRNYKPNMVETMDQYHFCYDVALEYLEGLESREGHHHHHH	soluble
MSLTHSTMHPYISLLDNEIYTHQGKEVITNMYNIIEKNLTLNLIANNVQYHPNQKTISFTHPSITIFNNKNIAIWYITCNQAQLYHQKKTLNLHGQVFINQIVKKICTQSIITNQLLIDLNNQSIISNNKTIIHGHYFYSIGSCMNINLHTQTTTLFGKIYTQYEIQNMEGHHHHHH	not soluble
MSLTITVNGVEISEDMIASQLDHYADTPSPRDTAIQQLILHTLLIQQAKSEGLDVADEQQAIQTLLDSKLQVPAIDEASCREFYDRYPERFSAGESAVASHILLPKGEGLEASLIKAKAEGILEEAQANPSRFAALAQEHSTCPSGKQGGSLGQFGRGQMVPEFEQAVFSTEAGQITPHLVETQFGYHIIQVEQRAEGGKIGFDEVKERLQHYLADLAVNQAMHEYLNMLVSAAQISGYQMTAEGHHHHHH	soluble
MSLTNDERILSWNETPSKPRYTPPPGAIDAHCHVFGPMAQFPFSPKAKYLPRDAGPDMLFALRDHLGFARNVIVQASCHGTDNAATLDAIARAQGKARGIAVVDPAIDEAELAALHEGGMRGIRFNFLKRLVDDAPKDKFLEVAGRLPAGWHVVIYFEADILEELRPFMDAIPVPIVIDHMGRPDVRQGPDGADMKAFRRLLDSREDIWFKATCPDRLDPAGPPWDDFARSVAPLVADYADRVIWGTDWPHPNMQDAIPDDGLVVDMIPRIAPTPELQHKMLVTNPMRLYWSEEMEGHHHHHH	soluble
MSLTNLLIRNVRPSADAALDILIEGDRIARIGPSLDAPAGCAIEDGAGALALPGLVEGHTHLDKTHWGMPWYRNQVGPRLVDRIENERHYRATSGHDAGAASLALARAFLAAGTTRIRTHVDIDTEAGLRHLHGVLATRETLRGEVDIQIVAFPQSGVLKRPGTDVLLSDALAAGADLLGGLDPCAIEGDPVEAVDVLFAIAERHGRGLDLHLHERGSMGAYSLDLILQRTATHGMQGKVTISHGFCLGDIGERERDALLARMAELGVGLVTTAPAAVPVPPVAACRAAGVTVIGGNDGVRDTWTPYGSPDMLERAMLIGMRNDFRRDDALEVALDCVTHGAARGCGFGDYGLQPGSRADVVLVDALTFAEAVVARPVRRLVVSSGKIVARNGALVEGHHHHHH	soluble
MSLTNSSNLIDGIEVYVLNNPKDVKPHWVSHFIVPTANELLIKIKTKNGNSGFGVATSYTDIKPIIKPFTNGLQDLVIGEDPFCPEKIYDKIFKLTDTRMSSEKGWSREALIRISAALDIACWDLIGKAANIPLYKLFGGYRNQIPVYVTCAYYRDGKDEIELRDELKKLIDIGHQSFKVKVGGLSIKEDAKRLETIRNEIGNQKDLMIDVNRAWDLKTAIEGVKEFKKFNPIWIEEPVRWEDDRRNLKLLSKQTDIPLSGGESEITIHGCRSMIEEEAIQILQFDCTMFGGFTNGKKLSALCEINHIDIAPHHDCYIHAPLVASSPSGRIVESFDDERDPIQSELFENQHKMSNGWIYLNENPGLGFDISEAALKKFGKLVYKKEGHHHHHH	soluble
MSLTPLPYECQKCVLQFFEANRRFKLVERCDSLKAADKAAPLHIYKLYMNPRVIRINRHRYTLGLLRHLPKDHVYYSPYINNVNLDGGAAYDMDQYGLKDPRCNEVLSPGDLKVESKEKINNMEDMTMEMLQFAMRDFIRPQGRMQVQQREDPESSSEDDEDEAEDLPAEGSDDEDDDPQEAQIRRILGDAYLPRARYSSSESEASESEDEPDIDPAVTDQLEAYTNPYSWREENEPAPYRFGIRFQRMNLDFRRDRETFHGIIEYLDYNKKMYDAMKYITEKLFGKRAHPIVIKTLELGDAGGVYRLPENFKVKVSNMRFGTEFGLLWDGLNSIFHESTLPFKSLHMPLEHDHPVIHATQRLVIGTEKMFGENFAWIPFLLKLPQKNVYMLHSPLFHHDYVQLIDNWIETPKSIGTCFTFGVKQYHATQSTLNLLGDHPMVVSKRMEGVDCTEFPHCFNIPLTYESELNVYGKKRTENLDPLEFMPHVSWCLVFEVMPIGSALPLED	not soluble
MSLTQMPNVHDAEPIPEAARAEIDRLLLSGDLFRYTAPQDAPVALLEREFAALLGTKYALAVSSCSAALFLSLKALDLPRDARVLIPGFTFAAVPSSVVHADCVPVLCEVGENYRIDMADFKARLDDVQAVIVSHMRGHTSDMDAILSLCAARDIPVVEDAAHSLGTLWHGEKIGTLGRVGCFSFQSYKMVNAGEGGILVTDDADLVARAVIMSGAYEHNWAKHVDGDDPALSEAFARWQNKLPLYNLRLSNLSAAVIRPQLPLLAERVRRGLENHDYVADKLNSSPVLSVPAPLVAETRAPDSIQFNLVGLSDDEVTRFAEAAAARGIKVQIFGKSADNARAFWNWQFLPGGAPELPRTRDMLMRACDVRLPVRLTRDELDLIANALLAAAAEVQGPLRVYGTEGHHHHHH	soluble
MSLTSEIVNSAWKVIPMFESRSIPLTVDFYTKTLGFELGSVKPEDNESELYFCSLAIGKKADANFYFSKVTPETFKSSHAMIGLGTRQLDDYYVYLKGKIEVEFSEDIEDKPWGFRQFTIKDTDGNSLTFFKFLEGGNPGDEGHHHHHH	soluble
MSLTSRVSGVISTDEIIVILSVFVRYDVEQPSKLDRVRADYNVHYWSQGFFGIDDQGEVYVSPRKDKAHQTQLSSIVKQLEARDLNLPVLVRFPQILHQRVHNICDAFNQAIEEYDYPNKYLLVYPIKVNQQKEVVDEILASQAELEHKQLGLEAGSKPELLAVLAMAQQASSVIVCNGYKDREYIRLALIGEKLGHKVFIVLEKLSELDLVLKEAKSLGVKPRLGLRIRLASQGAGKWQSSGGEKSKFGLAASQVLTVINRLKAENQLEALQLVHFHLGSQMANIRDVRNGVNEAVRFYCELRELGAHIDFFDVGGGLAVDYDGTRSQSSNSMNYGLHEYARNIVSTVSDVCNLYGQPRPVIISESGRSITAHHAVLITNVIGTEAYSPEEIPAPGADAPMLLKNMWRGFEEVQHGTDDRALIEIYNDTQSDLSEAHSQFATGVLNLEHRAWAEQLSLRIYHELRQKMSNKNRFHRPILDELQERLADKFFVNFSLFQSLPDAWGIDQVFPVLPLSGLEEMNDRRAVMLDITCDSDGAVEQYVEGQGIESTLPVPAWTSDKPYLMGFFLVGAYQEILGDMHNLFGDTHSAVVNINDNGESEIAFINEGDTVEDMMRYVHIDVDKIRTNYRQLVSQRVAKEEQETVLAELELGLSGYTYLEDFEGHHHHHH	soluble
MSLTTIKTSNLGFPRIDLNREWKKALEAYWKGSTDKDTFLKQIDELFLSAVKTQIDQQIDVVPVSDFTQYDHVLDTAVSFNWIPKRFRHLTDATDTYFAIARGIKDAVSSEMTKWFNTNYHYIVPEYDESIEFRLTRNKQLEDYRRIKQEYGVETKPVIVGPYTFVTLAKGYEPSEAKAIQKRLVPLYVQLLKELEEEGVKWVQIDEPALVTASSEDVRGAKELFESITSELSSLNVLLQTYFDSVDAYEELISYPVQGIGLDFVHDKGRNLEQLKTHGFPTDKVLAAGVIDGRNIWKADLEESLDAVLDVLSIAKVDELWIQPSSSLLDVPVAKHPDEHLEKDLLNGLSYAKEKLAELTALKEGLVSGKAAISEEIQQAKADIQALKQFATGANSEQKKELEQLTDKDFKRPIPFEERLALQNESLGLPLLPTTTIGSFPQSAEVRRARQKWRKAEWSDEQYQNFINAETKRWIDIQEELELDVLVHGEFERTDMVEYFGEKLAGFAFTKYAWVQSYGSRCVRPPVIYGDVEFIEPMTVKDTVYAQSLTSKHVKGMLTGPVTILNWSFPRNDISRKEIAFQIGLALRKEVKALEDAGIQIIQVDEPALREGLPLKTRDWDEYLTWAAEAFRLTTSSVKNETQIHTHMCYSNFEDIVDTINDLDADVITIEHSRSHGGFLDYLKNHPYLKGLGLGVYDIHSPRVPSTEEMYNIIVDALAVCPTDRFWVNPDCGLKTRQQEETVAALKNMVEAAKQARAQQTQLVEGGSHHHHHH	soluble
MSLTTPLYPIILAGGSGTRLWPLSRQNFPKQFLKLNGELSLIQQTMKRAMGLPGNQTIIVSNDAHYFICQDQLQDFNAQTTYLLEPCARNTAPAIACAAHYLANTVGKDAVMLVLPSDHWIADDEIWLAAMLEGGQFASENNAIVTFGIKPDSPKTGYGYIEAGTTLSSDIKQVLSFREKPDAHTAAQFVSKGNYFWNSGMFICRAGVYLEELEQFETDIYQFSQQALTLAQHHHDFLRLDLDCFSQCKEESIDYAIMEKTDKAVVIPISIQWSDLGCWTAVADANKQDEQGNTLIGNVIAQDSHNCLINSEELLVTTVGIQDQIIVATSDAVLVADKRYSQQVKDLVHSLRKDHPHLTQDHQRVPRPWGYYEVLAEGTSFKVKRLMVKPGAKLSLQTHQHRAEHWVIVGGEAEVVNGNNTFRLSKNQSTYIPKNALHRLSNPHNEPLYVIEVQSGSYLGEDDIKRFDDIYLRKEVEEGHHHHHH	soluble
MSLTTPTMIAAVVEEANGPFVLRKLARPQPAPGQVLVQIEASGTNPLDAKIRAGEAPHAQQPLPAILGMDLAGTVVAVGPEVDSFRVGDAVFGLTGGVGGLQGTHAQFAAVDARLLASKPAALTMRQASVLPLVFITAWEGLVDRAQVQDGQTVLIQGGGGGVGHVAIQIALARGARVFATARGSDLEYVRDLGATPIDASREPEDYAAEHTAGQGFDLVYDTLGGPVLDASFSAVKRFGHVVSCLGWGTHKLAPLSFKQATYSGVFTLHTLLANEGLAHFGEMLREADALVQTGKLAPRLDPRTFSIAEIGSAYDAVLGRNDVPRQRGKIAITVEPQFNLHEQREGHHHHHH	soluble
